Broadly, the IC50 is the concentration at which inhibition is half-maximal.

The text below walks through data of patent US20220017630A1 (JIANGSU SIMCERE PHARMACEUTICAL, published 2022).

Numbering of substitutions follows the chain as printed.

Assay [1] deals with T1, human TNFR2 on the cell surface (CHO-TNFR2 cells; human Treg cells) (human, UniProt P20333 23-461).
T1 construct: whole, on cells; The assay field of each row says which cells; also called TNFR2-CHO cell; TNFR2 on Treg cells
T1 sequence (looked up): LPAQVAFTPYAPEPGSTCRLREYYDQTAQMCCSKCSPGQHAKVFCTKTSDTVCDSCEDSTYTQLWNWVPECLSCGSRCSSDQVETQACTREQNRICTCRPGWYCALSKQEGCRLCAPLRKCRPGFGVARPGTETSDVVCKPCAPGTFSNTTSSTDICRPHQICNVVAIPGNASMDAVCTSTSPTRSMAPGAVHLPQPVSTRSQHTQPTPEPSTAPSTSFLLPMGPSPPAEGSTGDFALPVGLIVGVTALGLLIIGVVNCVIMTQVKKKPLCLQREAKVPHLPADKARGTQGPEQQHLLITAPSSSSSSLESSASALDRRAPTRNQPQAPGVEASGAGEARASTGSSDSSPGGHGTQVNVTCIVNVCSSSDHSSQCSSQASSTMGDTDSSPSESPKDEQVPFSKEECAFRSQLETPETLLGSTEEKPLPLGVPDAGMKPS
The assay is described as follows: flow cytometry competition on CHO-TNFR2 cells: antibody first, then human TNFα-biotin, PE-streptavidin; MFI of bound TNFα-biotin [panel #309, table under the plot]. As to the method:
(§1) CHO cells that stably overexpressed human TNFR2 were used for experiments. The cells were resuscitated and passaged until in good state, and the expression level of human TNFR2 on the cells was assessed by FACS. Compared to the isotype control, the assay could be carried out when the fold change of mean fluorescence intensity (MFI) was more than 100 times.
(§2) CHO-TNFR2 cells were digested, washed twice with DPBS and stained with Live/Dead (L/D) at room temperature for 20 min, and then seeded at 1×10⁵ cells/50 μl/well. […] The diluted antibodies were added 50 μl/well into wells pre-seeded with cells, and gently blown and mixed to make the final concentrations of the antibodies to 20, 6.67, 2.22, 0.74, 0.247, 0.08, 0.027 and 0 nM, respectively followed by incubation at 4° C. for 30 min. […] After washing twice with the staining buffer, 100 μl/well of PE-streptavidin was added and incubated at 4° C. for 30 min. After additional washing with the staining buffer twice, 150 μl resuspended cells was analyzed using an flow cytometry. Taking the logarithmic value of the antibody concentrations as abscissa and the corresponding MFI value as ordinate, the inhibition curve of the antibody was drawn, and the IC50 value was calculated by four parameters fitting.

Assay [2] concerns the target T1, human TNFR2 on the cell surface …. The assay is described as follows: flow cytometry competition on CHO-TNFR2 cells: antibody first, then human TNFα-biotin, PE-streptavidin; MFI of bound TNFα-biotin [label on D00006), panel #125, table under the plot]. The procedure:
as §1, §2
(In general: In flow cytometry, cells or beads pass a laser one at a time.)

Assay [3] shares this target. The assay is described as follows: flow cytometry competition on CHO-TNFR2 cells: antibody first, then human TNFα-biotin, PE-streptavidin; MFI of bound TNFα-biotin [label on D00006), panel #001, table under the plot]. The procedure:
as §1, §2

Assay [4] has the same target. The assay is described as follows: flow cytometry competition on CHO-TNFR2 cells: antibody first, then human TNFα-biotin, PE-streptavidin; MFI of bound TNFα-biotin [label on D00006), panel #088, table under the plot]. The procedure:
as §1, §2

The target is the same in assay [5]. The assay is described as follows: flow cytometry competition on CHO-TNFR2 cells: antibody first, then human TNFα-biotin, PE-streptavidin; MFI of bound TNFα-biotin [label on D00006), panel #224 (printed twice, bottom left and bottom right), table under the plot]. The procedure:
as §1, §2

Assay [6] has the same target. The experiment in a line: flow cytometry competition on CHO-TNFR2 cells: antibody first, then human TNFα-biotin, PE-streptavidin; MFI of bound TNFα-biotin [panel #226, table under the plot]. The procedure:
as §1, §2

The target is the same in assay [7]. The experiment in a line: flow cytometry competition on CHO-TNFR2 cells: antibody first, then human TNFα-biotin, PE-streptavidin; MFI of bound TNFα-biotin [label on D00006), panel #133, table under the plot]. As to the method:
as §1, §2

Assay [8] has the same target. The assay is described as follows: flow cytometry competition on CHO-TNFR2 cells: antibody first, then human TNFα-biotin, PE-streptavidin; MFI of bound TNFα-biotin [panel #352, table under the plot]. As to the method:
as §1, §2

The target is the same in assay [9]. The experiment in a line: flow cytometry competition on CHO-TNFR2 cells: antibody first, then human TNFα-biotin, PE-streptavidin; MFI of bound TNFα-biotin [panel #365, table under the plot]. The procedure: as §1, §2
Assay [10] has the same target. The assay is described as follows: flow cytometry competition on CHO-TNFR2 cells: antibody first, then human TNFα-biotin, PE-streptavidin; MFI of bound TNFα-biotin [panel #395, table under the plot]. The procedure: as §1, §2

B1: TNFR2 antibody #309 (antibody, V domains shown)
VH: EVQLQESGAELVKPGASVKLSCKASGYTFTSYWIHWVKLRPGQGFEWIGEINPNNGGTDYNEKFKRKATLTVDKSSSTAYMELSSLTSEDSAIYYCTIDSMITTTWFAYWGQGTTVTVSS
VL: EIVMTQSQKLMSTVVGDRVSVTCKASQNVGTNVAWFQQKPGQSPKALINSASYRYSGVPDRFTGSGSGTDFTLTISSVQSEDLAEYFCQQYNSYPFTFGSGTKLEIK
On to B1, for which, in assay [1], the IC50 was found to be 0.116 µg/mL.

B2: TNFR2 antibody #125 (antibody, V domains shown)
VH: EVQLQESGGGLVQPGGSLNLSCAASGFAFSIYDLSWVRQTPEKRLEWVAYINNGGISTYYSDTVKGRFTISRDNAKNTLYLQMSSLKSEDTAMYYCVRGPFYGSANYFDYWGQGTTVTVSS
VL: DIQMTQSPASLSLSVGETVTITCRASENIYSNLAWYQQKQGKSPQLLVYDATKLAEGVPSRFSGSESGTQYSLKINSLQSEDFGTYYCQHFWVTPWTFGGGTKLEIK
B2 displayed a half-inhibitory concentration (IC50) in assay [2] of 0.109 µg/mL.

B3: TNFR2 antibody #001 (antibody, V domains shown)
VH: B2 VH with I31T
VL: B2 VL with D1E, Q3V, A25T, N28S, A34P
notes: also called antibody #1
In the case of B3, the IC50 in [3] turned out to be 0.14 µg/mL.

B4: TNFR2 antibody #088 (antibody, V domains shown)
VH: B2 VH with I31T, E42G, S71T
VL: B2 VL with Q3L, S14F
As for B4, the 50% inhibitory concentration (IC50) in assay [4] was determined as 0.185 µg/mL.

B5: TNFR2 antibody #224 (antibody, V domains shown)
VH: EVQLQESGPEIVKPGASVKLSCTASGFNNKDIYMHWVKQRPEQGLEWIGRIDPATGNTKHDPKFQDKATLSSDTSSNTAYLQFSSLTSEDTAVYYCAHSPYGDFGAMDYWGQGTTVTVSS
VL: DIQMTQSPAIMSASLGERVTMTCTASSSVSSNYLHWYQQKPGSSPKLWIYSTSNLPSGVPARFSGSGSGTSYSLTISSMEAEDAATYYCHQYHRSPWTFGGGTKLEIK
The molecule B5 came in with an IC50 in assay [5] of 0.128 µg/mL.

B6: TNFR2 antibody #226 (antibody, V domains shown)
VH: EVQLQESGAELVRPGASVKLSCKASGYSFTNYWMNWVKQRPGQGLEWIGMIHPSDSETRLNQKFKDKATLTVDKSSSTAYMQLSSPTSEDSAVYYCARGEGLGAARSVSMDYWGQGTTVTVSS
VL: DIQMTQSPSSLSASLGDRVTISCRASQDISNYLNWYQQKPDGTVKVLIYYTALLHSGVPSRFSGSGSGTDYSLTISNLEQEDIATYFCQQGNTLPWTFGGGTKLEIK
Regarding B6, in assay [6], the IC50 was determined as 0.06 µg/mL.

B7: TNFR2 antibody #133 (antibody, V domains shown)
VH: EVQLQESGAELVRSGASVKLSCTASGFNIKDYYIQWVKQRPEQGLEWIGWIDPESGNTKYAPKFQDKATMTADTSSNTAYLQLSGLTSEDSAVYYCNAYYDYDGSMDYWGQGTTVTVSS
VL: DIVMTQSPLSLPVSLGDQASISCRSSQSLVHSNGNTYLHWYLQKPGQSPKLLIYKVSNRFSGVPDRFSGSGSGTDFTLKISRVETDDLGVYFCSQSTHVPTWTFGGGTKLEIK
The molecule B7 yielded an IC50 in [7] of 0.04 µg/mL.

B8: TNFR2 antibody #352 (antibody, V domains shown)
VH: EVQLQESGPGLVAPSQSLSITCTVSGFSLTSYGVHWVRQPPGKGLEWLVVIWSDGGTTYNSALKSRLSISKDNSKSQVFLKMNSLQTDDTAMYYCARHDDDGYYAMDYWGQGTTVTVSS
VL: DIVLTQSPSLMSASPGEKVTMTCSASSSVGYMYWYQQKPRSSPKPWIYLTSNLASGVPARFSGSGSGTSYSLTISSMEVEDAATYYCQQWSSDPFTFGSGTKLEIK
In the case of B8, the IC50 in assay [8] was determined as 0.056 µg/mL.

B9: TNFR2 antibody #365 (antibody, V domains shown)
VH: EVQLQESGPGLVQPSQSLSITCTVSGFSLTSYGVHWVRQSPGKGLEWLGLIWSDGSPDYSAAFISRLSINKDNSKSQVFFKMNSLQADDTAIYYCARNDDGGDYVMDYWGQGTTVTVSS
VL: B8 VL with D1E, S9A, G30S, V79A, S91T, D93N, F95L, S99A
B9 returned a half-inhibitory concentration (IC50) in assay [9] of 0.041 µg/mL.

B10: TNFR2 antibody #395 (antibody, V domains shown)
VH: B9 VH with G10V, G33S, L50V, S56G, P57T, N70S, V105A
VL: B8 VL with D1E, S9A, G30S, V79A, D93N, F95L, S99A
As to B10, the IC50 in [10] was found to be 0.021 µg/mL.
